In paper PMC4306385 (Archives of biochemistry and biophysics, 2014):

Molecular target: wild-type cardiac actin (ACTC), filaments (UniProt P68032 1-377)
Experiment: co-sedimentation

Kd: 5.02 µM | stoichiometry N: 0.76 mol/mol actin
B1: N-terminal C0C2 fragment of cardiac myosin binding protein-C (cMyBP-C) (domain or fragment)
chain: MPEPGKKPVSAFNKKPRSAEVTAGSAAVFEAETERSGVMVRWQRDGSDITANDKYGLAAEGKRHTLTVRDASPDDQGSYAVIAGSSKVKFDLKVTEPAPPEKAESEVAPGAPEEVPAPATELEESVSSPEGSVSVTQDGSAAEHQGAPDDPIGLFLMRPQDGEVTVGGSIVFSARVAGASLLKPPVVKWFKGKWVDLSSKVGQHLQLHDSYDRASKVYLFELHITDAQTTSAGGYRCEVSTKDKFDSCNFNLTVHEAIGSGDLDLRSAFRRTSLAGAGRRTSDSHEDAGTPDFSSLLKKRDSFRRDSKLEAPAEEDVWEILRQAPPSEYERIAFQHGVEACHRPLKRLKGMKQDEKKSTAFQKKLEPAYQVNKGHKIRLTVELADPDAEVKWLKNGQEIQMSGSKYIFESVGAKRTLTISQCSLADDAAYQCVVGGEKCSTELFVKEP
